From PMC11161652, “ASXLs binding to the PHD2/3 fingers of MLL4 provides a mechanism for the recruitment of BAP1 to active enhancers” (Nature Communications, 2024) come the findings set out here.

One assay deals with MLL3/4 complexes. As to the kind of experiment: Tandem affinity purification: interaction with MLL3/4 complexes. In kind it is cell-based, human. As to conditions: K562 soluble nuclear extracts, 3Flag-2Strep tag, western blot and mass spectrometry. Here is the method:
(§1) Isogenic K562 cell lines expressing 3xFlag2xStrep-tagged ASXL2 WT and ΔMBH (aa 650-670), were generated by integration at the AAVS1 safe harbor locus after DSB induction and recombination targeted by co-transfection with a ZFN expression plasmid, as previously described. 2 × 10^5 cells were transfected with 400 ng of ZFN expression vector and 4 μg of donor constructs. Selection and cloning were performed in RPMI medium supplemented with 0.5 μg/mL puromycin starting 2–3 days post transfection. Clones were obtained by limiting dilution and expanded before harvest for western blot analysis.
(§2) For purification of native complexes, after large-scale expansion of K562 clones, affinity purifications of tagged ASXL2 WT and ΔMBH (aa 650-670) were performed on nuclear extracts as previously described. Briefly, nuclear extracts were prepared following standard procedures and pre-cleared with CL6B Sepharose beads. […] Typically, 5–15 μl of the elutions (1–3% of total) was loaded on NuPAGE 4–12% Bis-Tris gels (Invitrogen) and analyzed by silver staining and western blots. […] Purified fractions were prepared and analyzed at the Proteomics Platform of the Quebec Genomic Center using an Orbitrap Fusion mass spectrometer (Thermo Fisher Scientific) as previously described. […]
Background: A western blot detects proteins with antibodies after separation by electrophoresis.

In the next assay the test system is PR-DUB complex. Put plainly: Tandem affinity purification: association with PR-DUB complex. In kind it is cell-based, human. As to conditions: K562 soluble nuclear extracts, 3Flag-2Strep tag, western blot and mass spectrometry. The procedure: as §1, §2
For assay [1], the system named is D372K/D400K MLL3PHD2/3 mutant. Put plainly: GST pull-down, D372K/D400K MLL3PHD2/3. As to conditions: D372K/D400K GST-MLL3PHD2/3; HEK293FT lysate, western blot. The format is binding, human. Here is the method: (§3) Pull-down assays were performed by mixing resin-bound GST-MLL3PHD2/3 and GST-MLL4PHD2/3 (wild type and mutants) with lysates of HEK293FT expressing Myc-ASXL1, Myc-ASXL2 or Myc-ASXL2ΔMBH. Pellets of HEK293FT cells transfected with the appropriate pDEST expression construct (15 μg/dish using polyethylenimine (PEI)) were lysed with 10 times their volume of lysis buffer (50 mM Tris pH 7.3, 100 mM NaCl, 1 mM DTT, 1 mM EDTA, 1 mM PMSF, 0.1% Tween20, 1/100 anti-protease (Sigma)) and sonicated with a probe sonicator (Branson digital sonifier 450) calibrated at 40% amplitude for 3–4 rounds during 40–60 s. Lysates were then centrifuged in a Sorvall Lynx 6000 (rotor: F21-8x50Y) at 15,000 RPM during 20 min. Approximatively 9 μg of purified GST-fusion proteins bound to GSH resin (Sigma, G4510) were used for each condition. Final volume of GSH resin was adjusted to 30 μl per condition with empty GSH beads and incubated with 1.5 mL of HEK293FT lysate expressing Myc-ASXL1, Myc-ASXL2 or Myc-ASXL2ΔMBH for 3 h at 4 °C on a rotative system. A fraction of the reaction mixture (80 μL) was collected as the input. After the incubation, beads were washed 5 times and mixed with 100 μL of Laemmli buffer. Samples were loaded on 8% or 15% SDS-acrylamide gels and processed for western blotting.

Assay [2] deals with active enhancer upstream of GRHL2 gene in K562 ASXL2 KD cells. Put plainly: ChIP-qPCR at active enhancer upstream of GRHL2. The format is cell-based, human. The following applies: K562 ASXL2 KD cells complemented from AAVS1; IP/input corrected for total H3; three biological replicates. The source says: K562 cell lines with knocked down expression of endogenous ASXL2 were obtained after double infection of lentivirus expressing Cas9 and 4 different gRNAs targeting the end of exon 1 (pLENTI_CRISPR_V2, co-selection by FACS with GFP). Clone 1 L was selected (obtained with gRNA 1: 5′-[…]-3′ cutting at the very end of exon 1) for transfection of WT and DMBH ASXL2 vectors for integration and stable expression from the AAVS1 safe harbor, as described for the tagged K562 cell lines used for purification. Expression levels of endogenous ASXL2, WT and ΔMBH ASXL2 were monitored by running SDS-PAGE and transferring onto nitrocellulose membrane. Anti-FLAG M2 conjugated to horseradish peroxidase (A8592, Sigma) was used at 1:10,000 dilution and anti-ASXL2, at 1:2,000 (Cell Signaling (E623X), CS71257, lot:1). Immunoblots were visualized using a Western Lightning plus ECL reagent (Perkin-Elmer).
Crosslinked chromatin from K562 cells and immunoprecipitations were prepared as previously described. For chromatin immunoprecipitation, 100 μg of chromatin was incubated with 2 μg anti-H2AK119ub (Cell Signaling, 8240S, D27C4 lot:9) or 3 μg anti-H3 (Abcam, ab1791, lot GR3421644-1), 2 μg anti-H3Kme1 (Abcam, ab8895, lot GR442591-1), 2 μg anti-H3K27ac (Thermo Fisher, MA5-23516, lot: ZA4181671) or 0.3 μg anti-H3K27me3 (Cell Signaling, C36B11, 9733 S lot:19) antibodies overnight at 4 °C. 25 μl of Protein A Dynabeads were then added to each sample, and the mixtures were incubated at 4 °C for 4 h. The beads were washed extensively and eluted with 1% SDS and 0.1 M NaHCO3. Cross-linked samples were reversed by heating overnight at 65 °C in the presence of 0.2 M NaCl. Samples were then treated with RNase A and proteinase K for 2 h, and DNA was recovered using MinElute PCR purification Kit (Qiagen, 28004) according to the manufacturer’s instructions. Quantitative real-time PCR corrected for primer efficiencies in the linear range was performed using SYBR Green I (Roche, 04877352001) on a LightCycler 480 (Roche). Primers for 5′ end of active enhancer: Fwd: 5′-[…]; Rev: 5′-[…]; For 3′ end: Fwd: 5′-[…], Rev: 5′-[…].
For orientation: In qPCR the cycle at which signal appears reflects the starting amount.

For a further assay, the system named is H2AK119. As to the kind of experiment: H2AK119 deubiquitination assay. As to conditions: purified complexes on human chromatin, 37 °C, 3 or 6 h, immunoblot. In kind it is biochemical, human.
Assay [3] concerns MLL4PHD2/3 or MLL3PHD2/3 mutants. Put plainly: GST pull-down, mutated MLL3/4PHD2/3. The format is binding, human. The following applies: mutated GST-MLL3/4PHD2/3; HEK293FT lysate, 3 h at 4 °C, western blot; n = 3. Here is the method:
as §3

A further assay concerns GST-MLL3PHD2/3. As to the kind of experiment: GST pull-down, WT MLL3PHD2/3. In kind it is binding, human. The following applies: WT GST-MLL3PHD2/3; HEK293FT lysate, 3 h at 4 °C, western blot; n = 3. The procedure:
as §3

In the next assay the test system is GST-MLL4PHD2/3. Put plainly: GST pull-down, WT MLL4PHD2/3. In kind it is binding, human. As to conditions: WT GST-MLL4PHD2/3; HEK293FT lysate, 3 h at 4 °C, western blot; n = 3. The procedure: as §3
Assay [4] has as its system H3K4 (recombinant histone octamers or mono-nucleosomes). Put plainly: H3K4 histone methyltransferase assay. In kind it is biochemical, human. The following applies: purified complexes, 50 μM S-adenosyl-L-methionine, 8 h at 30 °C, n = 2. Here is the method: Equivalent amounts of purified ASXL2 WT and ΔMBH complexes were incubated with 0.5 μg of reconstituted recombinant mono-nucleosomes or histone octamers as substrates. All HMT assays were performed in 50 mM Tris-HCl pH 8, 100 mM KCl, 5 mM MgCl2, 0.1 mM DTT, 10% glycerol in the presence of 50 μM S-adenosyl-L-methionine (Sigma, A7007). After an 8 h incubation at 30 °C, 4X Laemmli buffer was added, the samples run on 15% SDS-PAGE and transferred on nitrocellulose membrane. Immunoblotting was performed with an anti-H3K4me1 (Ab8895, rabbit polyclonal) diluted 1:1000 followed by HRP conjugated secondary goat anti-rabbit antibody (Sigma) used at a 1:10,000 dilution. The immunoblots were visualized using a Western Lightning plus-ECL reagent (Perkin-Elmer). Anti-H4 (Abcam, Ab7311, rabbit polyclonal) was used at a 1:2,500 dilution.

Protocol for H2AK119: The deubiquitination reactions were done by adding equivalent amounts of ASXL2 WT or ΔMBH (4 μl E1-F) native complexes purified from K562 cells to 0.5 μg of chromatin enriched extracts from K562 cells, incubated at 37 °C in 50 mM Tris-HCl pH 7.3, 50 mM NaCl, 1 mM MgCl2, 1 mM DTT, 1 mM PMSF, 10 μg/ml Leupeptin, 10 μg/ml Pepstatin A, 25 μg/ml Aprotinin. After 3 or 6 h incubation, 4X Laemmli buffer was added, the samples run on 15% SDS-PAGE and transferred on nitrocellulose membrane. Immunoblotting was performed with an anti-H2AK119ub (Cell Signaling, D27C4, rabbit polyclonal) diluted 1:2000 followed by HRP conjugated secondary goat anti-rabbit antibody (Sigma) used at a 1:10,000 dilution. The immunoblots were visualized using a Western Lightning plus-ECL reagent (Perkin-Elmer). Anti-H3 (Abcam, Ab1791, rabbit polyclonal) was used at a 1:50,000 dilution.
Cell pellets were harvested 2 days post-transfection and lysed with 10 times their own volume with EB300 lysis buffer (50 mM Tris pH 7.3, 300 mM NaCl, 0.5% Triton X100 (V/V), 5 mM EDTA, 50 mM NaF, 1 mM Na3VO4 (activated), 10 mM Beta-glycerol-phosphate, 1 mM DTT, 1 mM PMSF, 1/100 anti-protease (Sigma)). Lysates were incubated on ice for 30 min before centrifugation in a Sorvall Lynx 6000 (rotor: F21-8x50Y) at 15,000 RPM during 20 min. Supernatants were collected and diluted with EB0 (50 mM Tris pH 7.3, 0.5% Triton X100 (V/V), 5 mM EDTA, 50 mM NaF, 1 mM Na3VO4, 10 mM Beta-glycerol-phosphate, 1 mM DTT, 1 mM PMSF, 1/100 anti-protease) to adjust the final concentration of NaCl to 150 mM. Agarose anti-FlagM2 beads (40 μL) (Sigma, A2220) were added to each lysate and incubated overnight at 4 °C on a rotative system. The next day, beads were washed 5 times with the wash buffer (50 mM Tris pH 7.3, 150 mM NaCl, 0.5% Triton X100 (V/V), 1/500 anti-protease, 1 mM DTT, 1 mM PMSF). […] Following three elutions of 2 h each, the pooled fractions were incubated with 40 μL of anti-HA beads (Sigma A2095) overnight at 4 °C on a rotative system. […]

B1: full-length ASXL2: full length wild type ASXL2 expressed in HEK293FT or K562 cells (protein)
chain: MREKGRRKKGRTWAEAAKTVLEKYPNTPMSHKEILQVIQREGLKEIRSGTSPLACLNAMLHTNSRGEEGIFYKVPGRMGVYTLKKDVPDGVKELSEGSEESSDGQSDSQSSENSSSSSDGGSNKEGKKSRWKRKVSSSSPQSGCPSPTIPAGKVISPSQKHSKKALKQALKQQQQKKQQQQCRPSISISSNQHLSLKTVKAASDSVPAKPATWEGKQSDGQTGSPQNSNSSFSSSVKVENTLLGLGKKSFQRSERLHTRQMKRTKCADIDVETPDSILVNTNLRALINKHTFSVLPGDCQQRLLLLLPEVDRQVGPDGLMKLNGSALNNEFFTSAAQGWKERLSEGEFTPEMQVRIRQEIEKEKKVEPWKEQFFESYYGQSSGLSLEDSKKLTASPSDPKVKKTPAEQPKSMPVSEASLIRIVPVVSQSECKEEALQMSSPGRKEECESQGEVQPNFSTSSEPLLSSALNTHELSSILPIKCPKDEDLLEQKPVTSAEQESEKNHLTTASNYNKSESQESLVTSPSKPKSPGVEKPIVKPTAGAGPQETNMKEPLATLVDQSPESLKRKSSLTQEEAPVSWEKRPRVTENRQHQQPFQVSPQPFLNRGDRIQVRKVPPLKIPVSRISPMPFHPSQVSPRARFPVSITSPNRTGARTLADIKAKAQLVKAQRAAAAAAAAAAAAASVGGTIPGPGPGGGQGPGEGGEGQTARGGSPGSDRVSETGKGPTLELAGTGSRGGTRELLPCGPETQPQSETKTTPSQAQPHSVSGAQLQQTPPVPPTPAVSGACTSVPSPAHIEKLDNEKLNPTRATATVASVSHPQGPSSCRQEKAPSPTGPALISGASPVHCAADGTVELKAGPSKNIPNPSASSKTDASVPVAVTPSPLTSLLTTATLEKLPVPQVSATTAPAGSAPPSSTLPAASSLKTPGTSLNMNGPTLRPTSSIPANNPLVTQLLQGKDVPMEQILPKPLTKVEMKTVPLTAKEERGMGALIATNTTENSTREEVNERQSHPATQQQLGKTLQSKQLPQVPRPLQLFSAKELRDSSIDTHQYHEGLSKATQDQILQTLIQRVRRQNLLSVVPPSQFNFAHSGFQLEDISTSQRFMLGFAGRRTSKPAMAGHYLLNISTYGRGSESFRRTHSVNPEDRFCLSSPTEALKMGYTDCKNATGESSSSKEDDTDEESTGDEQESVTVKEEPQVSQSAGKGDTSSGPHSRETLSTSDCLASKNVKAEIPLNEQTTLSKENYLFTRGQTFDEKTLARDLIQAAQKQMAHAVRGKAIRSSPELFSSTVLPLPADSPTHQPLLLPPLQTPKLYGSPTQIGPSYRGMINVSTSSDMDHNSAVPGSQVSSNVGDVMSFSVTVTTIPASQAMNPSSHGQTIPVQAFSEENSIEGTPSKCYCRLKAMIMCKGCGAFCHDDCIGPSKLCVSCLVVR
modifications: left off: Myc, end not stated, kept
notes: full length wild type ASXL2 expressed in HEK293FT or K562 cells
As to B1, the “interaction with MLL3/4 complexes” value with MLL3/4 complexes is “co-fractionation of the PR-DUB complex with the components of the MLL3/4 complexes”. Besides, the “association with PR-DUB complex” value in the assay with PR-DUB complex is reported as “stably associates with the expected components of the PR-DUB complex”. Besides, the association in pull-down entry in assay [1] is “unable to bind full-length ASXL2”; in [3], “not with the MLL4PHD2/3 or MLL3PHD2/3 mutants”; in the assay with GST-MLL3PHD2/3, “detected”; in the assay with GST-MLL4PHD2/3 it was “detected”. In [2], the H2AK119ub level entry is recorded as “decrease in H2AK119ub level at this enhancer”. Also, in [2], the H3K4me1 level entry is recorded as “not affected”. The “de-ubiquitination of H2AK119” value in the assay on H2AK119 was “efficient and equivalent de-ubiquitination of H2AK119”. In [4], the “mono-methylation of H3K4” value is on record as “clearly detected”.
